The values that follow come from the DeepSol protein solubility set.

A short description of the series: soluble on expression in E. coli; label from the status in PepcDB or PDB records.
“MGSDKIHHHHHHMLSAMYLIDAFFSRQNNQFHLEQQSHCVNQIIEQWRYNGQIIGREIPQFVAEQKNQQGLAVRVTCPEQTSLLAEFNNQPVNDALQTAEKCGVSFESFHIVAEDLNSEITATETPAWQLLYTTYLQSCSPLQSGESLQPIPLYKQLKNIPHLAMDLVKWQENWQACDQLQMNGSVLEQQALVQISDTQSTLFKHGYHLTQEIERHSGIPTYYYLYRIGGKSCEAELQSRCPLCKRKWTLSHPLFDFLYFKCDHCRLVSNLSWHWQ”: the “soluble on expression in E. coli” value was “not soluble”. With “MTKEVLIHQIIDVLARAGFALSDRCNIRPRSFDVAARKDDTLLLCKVLFNIDGLNEETAREMKYLAEYLGGSAIVVGAKTRDQMLEDSVVYMRYDILALSVQTLYDYFVENIRPLVSAAPGGLYVSIEGDLLKKARTTQSMSLGTLASMVGVSRRTISKYEEEGMDASIDVVLHLEDIFGVELAKPIDILKSCGSRKPRKKAEPEKEEPKGKPGTLLPEDLILNTISMLGYDVLPTAQAPFKAISRDKSSVILTGVSEFNTTVIKRAHLMSSISCITETQSVFIINGRSKLKSVENTVLIEKKELDTISDSQELLDFIEERKDTHEA”, the “soluble on expression in E. coli” value was “not soluble”.

On to “MSDGQHRAADAVVVGAGLAGLACALDLCRAGWRVALLEASDGVGGRMRTDRRDGFLLDRGFQVFNTSYPQVKRRMELKSLRLRPFTAGVVAHTSNGPVRLADPTREPRAAGTLLPGRALPARDLAALAALTARDAVLPVAVTRRRRDRPTSAALSRVGLSDAAIAGILRPFLSGVFLEDRLETSARFFHLVWRSMVRGSLCLPAEGIGAVPAQLADGLPDGVLRLGTPVAEITDAGVLLGDGGEVPARVVVVATDPATAAGLLPDLTVPDTRTVTTYYHATDSPPTAEPILMVDSTGAILNTCVLSQVAPTYAPPGTGLVSTSVLGTDPPGRAQAVLRRLAELYGTDTSGWEQVAARTVDGALPAMLPPWPLSRTTRIGPGRYVCGDHRATGSVQGALASGTRAAREVRADREPQRLEHHHHHH”, for which the “soluble on expression in E. coli” value is given as “soluble”.

As for “MSIPLLEYKPSSQNQRVPGYEVPNEDTPRIYRIEDAAYDSELKELIWATYRQVFSEHVILKFFRQGNLESQLKNRAISVRDFVRGLAKSEAFKTLVIKSNSNYRLVELALKRLLGRAPYNKDEEIAWSIKIATNGWDGFVDALLDSEEYQSNFGENIVPYQRRRYKDRPFNLVTPRYGNYWRDKLESERYIEGDIKNFLELAKSIEIKTVTFTPVSTANIKIPDTTRNTTPTGIPISVNPSANFPVRLEHHHHHH”, the “soluble on expression in E. coli” value is on record as “not soluble”. For the sequence “MAHHHHHHMMGISPEAVLLDFDWTASYVLATDRLSTAAMNRATARTVSMEGGADGADTKPRNSGGGMPLLQLAMDVARVAPPSEVASISPLVSPVSGVRLQLLATASSEMQGGGEGQPAERMLLPNDRLTMELDAESLDALIAALRTAVDGMDSLSGC”, the “soluble on expression in E. coli” value was “not soluble”. Turning to “MGSDKIHHHHHHMEVNRLSALTPPMGWNSWDCYGASVTEEEVLGNAEYMANHLKKYGWEYIVVDIQWYEPTANSSAYNPFAPLCMDEYGRLLPATNRFPSAKNGAGFKPLSDAIHDLGLKFGIHIMRGIPRQAVYENSPVLGSTKTAREIAHTNSICPWNTDMYGVDPTKEGAQSYYNSLFELYAQWGVDFVKVDDIAASRLYDTHLEEIKMIQRAIQACGRPMVLSLSPGPAPIKYAHHFKTNANMWRITDDFWDDWSLLYQMFERCEVWEKHIGTGHWPDCGMLPLGHIGIRSVDGPGGDRWTRFTKDEQLTMMNLWAICHSPLMFGGELRDNDEWTLSLLTNEGILSINQKSVLNRFVYREEDKVAWAANGRNGEAYVALFNLHDQQKTLQFRLDMVGIMETVQLFNVWDRSFLQSLAPSESFQIELKPHQSMMLKLSPDR”, the “soluble on expression in E. coli” value was “not soluble”. For “MKRIDLLLNVLDSTFDKESWYAPFKYAIEGLTAEQAMWKPAGETTNTIWENVNHLTYYKERLAANLEGREWTHNLDGNDTFYLTKQSNNDTEWKEVVERSENAQRNLRQVLSAISERELEQNSLEGKLLDIMLHDAYHTGQIIQLRKMQGAWPSKR”, the “soluble on expression in E. coli” value is listed as “not soluble”.

With “MSLATTTSTDNTGLLDVLAPAYKKDTGVDLKWVAVGTGNALKLGENCDVDVVFVHAPKVELEYVEKGFGIDRTPVMYNDFVIIGNPSFKQKFTGMSVAEAFKLIEKEQVKFVSRGDKSGTHSKEREVWKEALGKIPEKESWYIEAGQGMLATINIAEEQKGLTLTDRGTFIKYESNHKGKPPMVIVLEGDNTLKNFYSIMAVNPKRCEKADYKGAKQFIDWIVSEKMQAEIANFKLLDKQLFTPDAKTREGHHHHHH”, the “soluble on expression in E. coli” value was “soluble”.

“MSIQIPRGTQDILPGTVELWQYIEGQAREICRRYNYKEIRTPIFEHTELFLRGVGDTTDIVQKEMYSFQDRGERSLTLRPEGTAPVVRSYVENKMFGDATQPTKLYYIGQMFRYERPQAGRYRQFVQFGIEAIGSNDPAIDAEVIALAVEFYRGMGLKNIKVVLNSLGDAASRQAHRDALIAHFEPRIGEFCSDCQSRLEKNPLRILDCKKDRNHELMGTAPSITEYLNEDSAVYYDKVQELLTMMDVPFEKDPNLVRGLDYYQHTVFEIMSEAEGFGAITTLSGGGRYNGLVQEIGGPEMPGIGFAMSIERLIMALKAENIELPIEHSIDCYVVALGEKAKDHAAKVAFDLRKAGLAVEKDYLDRKMKAQFKSADRLKAKFVAVLGEDELDKGIINLKDMATGEQEEVALDVFASYVAEKLI”: the “soluble on expression in E. coli” value is given as “soluble”. With “MGSDKIHHHHHHMPRQMRPDIADIRTGADLRQWYWRKDELVAHARTLGLKRSGAKFTILDRIAHFLDTGARDLPEAPAPKPTSDFDWHSAKLTPDTILTDSYKNTQNVRRFFKAQLGPRFAFSIPLMAWLKENSGKTLSDACAVWRDLQAERRRPGWQSDIKGHNQFNQYTRDFLAAHPDLGMDDVRRVWARKIQQPSPDGRHIYEPSDLDL”, the “soluble on expression in E. coli” value is recorded as “not soluble”. For “MTQLKPGACWSDNPKKVLEMLSPMNIIAITRSIPENTPNSWFIYWLTKVEEGEVRENIYAISPTKLEILPDLVKKALKLGYDGVYIDGIEALVIENGFKSVAKFLLHIKDIVLAENKFIILTLDPRALKEEEIKIIEKEFKKLELSLEHHHHHH”, the “soluble on expression in E. coli” value is listed as “soluble”. In the case of “MGSDKIHHHHHHMINYTELEENIKKNNIENVYIMCGFNEKLMKESINKILKKSISQDFESLNYSVFDGNEVEFEDILNACETVPFMSEKRMVVVYRAGFLNDNSSGSNKNSDKLIKDIEKYVPNVPKHCILVMYYVFDNTREKPSYRVKKFDKKVCVVEFSKLRGMQFQKKVKDVFAEKGKQIGKTELNYFCSRVENNMDIVYNEIEKLCCYTLEKEITKESIDNLLQPNETDDIFNLVDYISQSKPEMAITVLNEIMYKGVKANSILYMVERQFKLMLSIKIGIENKQSKEALVKELKLNPYVCDKMINECKRFTMKKILKSLDICLRTEKELKSVSGDPKFKMEVLIINLAII” it was “not soluble”. Take “MVRFFIGKEMLFDSHLHLDQLSDENIQQTLAHSKIIGMLAVSTNLNSAKKLLNLKQTYPKKLYIAAGFHPEQQLPSLEEQKKLFQWIDEHHSSISAIGEVGLPHYSKRENPNLDYVPYIELLERFILIAKKWDLPLNLHIVHNDVEIALELLQKHNIQRAHFHWFKTDEKSFQKFFSTPYFASLTPDILWNSKTQYVAQHLSLNRLMIETDSPWQHEGFERAGISEQLLAVLQKLAELKSLPLHSVQKQILLNTQQFYRLLEHHHHHH”: the “soluble on expression in E. coli” value is on record as “not soluble”. In the case of “MSLKPCFGYIRVSTERQGDGASLEAQKDAITGFASQNNLEIVRWFEERETASKTGRPIFGEMMNALVSGAAEGLILHKVDRTARNFSDWSRLHEVAKLGIDVYFAADSLDFGTRGGQLLADIQMALAADYSRNLSQEVKKGIYGRIKNGVYPFRAPLGYLDTGGGNVKAIDPIKAPLVSQVFELYCSGDYSITSLTEEMQRRGLKGVGERPVVRRNIESILRNPFYCGKMLVRGKLYDGAHEPLISTAQYRRVAAIKAQRFVKKSTKHELLFRGLFTCGACGQVLTGERQKAHVYYRCHTPRCGRGAIREDRLEETLREKLARLEISPEDQVTLESDIRAWLNKDGVKDIEKSLRLRISDATARLDRLTDLLVDGAIDKPAYELRKQNVEFEKQQLREELDALERSRAEEKDLKALLALAADLSSLYDAAPPPKKRELIRNCLVAPCVMDGQLVSHPADWLVSLRKSPKTDEKSHSAPQAILEGVRVMHAVVDVEGHHHHHH”, the “soluble on expression in E. coli” value was “soluble”. In the case of “MPKDNTWYTGAKLGWSQYSRENQLGAGAFGGYQVNPYVGFEMGYDWLGRMPRKAQGVQLTAKLGYPKLGTDDLDIYTRLGGMVWRADTSDKDGNGYISAAEASVSPVFAGGVEYVIRRRITPEIATRLEYQWTNNASDNGMLSLGVSYRFGQGEAA” it was “soluble”; in that of “MKFKQDFFTQLPEFYSQVYPQGISNPHWLAWSDDAAALIGLHQPTDELLQGLSGNAAVEGASYYAQVYSGHQFGGYTPRLGDGRSIILGEAIGPNGAWDVALKGGGPTPYSRHGDGRAVMRSAVREFLVSEALHHLGVPTTRALAVIGSDMPVWRESQETAAITVRLARSHIRFGHFEFFSHSERGQADKLTQLLNFTLKQHYPHLSCDPAGYKAWFLQVVQDSAKMIAHWQAIGFAHGVMNTDNMSILGDSFDFGPFAFLDTFQEDFICNHSDPDGRYAFGQQPGIGLWNLQRLAQALTPVIASDDLIAALNQYQHALVQHYLALMRAKLGLVQQADSSAEQDQQDLELIGRFTVLMEKNQLDYSHTWRRFGQLDPSSLHSSLRDDFIDLNEFDAWYQVYQARLGKVTDVEAWQQQCNRVNPKYILRNYLAQEAIIAVDEGNLAQLQRLHQVLRQPFTEQIEHEELAKRPPDWGQGLIMSCSS”, “soluble”; in that of “MENCPLVSVIVCAYNAEQYIDESISSIINQTYENLEIIVINDGSTDLTLSHLEEISKLDKRIKIISNKYNLGFINSLNIGLGCFSGKYFARMDADDIAKPSWIEKIVTYLEKNDHITAMGSYLEIIVEKECGIIGSQYKTGDIWKNPLLHNDICEAMLFYNPIHNNTMIMRANVYREHKLIFNKDYPYAEDYKFWSEVSRLGCLANYPEALVKYRLHGNQTSSVYNHEQNETAKKIKRENITYYLNKIGIDIKVINSVSLLEIYHVDKSNKVLKSILYEMYMSLDKYTITSLLHFIKYHLELFDLKQNLKIIKKFIRKINVIF”, “not soluble”. As for “MAKGQNAPIRRRTLTRDKVVDAAIEIIDEHGWEQLSMTSLSARLNVVTASLYNHVRNLDDIRGAVQVRTMTELGAHLREIAMGRTGPDGLRALVDAHRAWATQHPHRYQTLTTSPVDRDAFISAALDANTALRTMLASCGLPPEDTLDAAVSIFAAMHGFVMLVNTDFLGDELDLDSIYESVLRGALSSVGWPERTHTPS”, the “soluble on expression in E. coli” value is “not soluble”. With “VAFLCQLFGVYRSSYQAWHHRVKKPDTERIRLKSLVREAFNEGKGSAGARTIAAMVTAKGIPLGRWRAGKLMAELGLVSRQQPKHRYSHQEQEHLDIPNDLDRQFTVTEPNQVWCGDVTYIWTGKCWAYLAVVLDLFARKPIGWAMSFSADSELTKRALEMAFESRRKPQGVMFHRDQGSHYTRKAFRRLLWRYGIKQSLSRRGNCWDNSPMERFFRSLKSEWVPEEGYSDFRKAFRSITNYIQGEPRQSRDFPYVFITFLYPASIRRANGAGAG”, the “soluble on expression in E. coli” value is on record as “soluble”. On to “MNDSSVIYRAIVTSKFRTEKMLNFYNSIGSGPDKNTIFITFGRSEPWSSNENEVGFAPPYPTDSVLGVTDMWTHMMGTVKVLPSMLDAVIPRRDWGDTRYPDPYTFRINDIVVCNSAPYNATESGAGWLVYRCLDVPDTGMCSIASLTDKDECLKLGGKWTPSARSMTPPEGRGDAEGTIEPGDGYVWEYLFEIPPDVSINRCTNEYIVVPWPEELKEDPTRWGYEDNLTWQQDDFGLIYRVKANTIRFKAYLDSVYFPEAALPGNKGFRQISIITNPLEAKAHPNDPNVKAEKDYYDPEDLMRHSGEMIYMENRPPIIMAMDQTEEINILFTF”, for which the “soluble on expression in E. coli” value is on record as “soluble”.
